The supplement of paper PMC9170038

Assays:
[1] = tested on: MS2 coat protein; assay: apparent KD of MS2 coat protein, switch ON state; designed switch direction (-1 OFF switch, 1 ON switch): -1; higher = weaker reporter binding; conditions: FMN input: 0 or 200 uM; Eterna round: R93 (includes R88 designs)
Method in brief: (§1)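 The designed RNA switches were transcribed on-chip from Illumina sequencing clusters. In 100 mM Tris-HCl pH 7.5, 80 mM KCl and 4 mM MgCl2, without or with constant ligand, they were titrated with SNAP-549-labelled MS2 coat protein from 0.7 or 1.5 nM to 3 µM in twofold steps. Apparent KD is the per-design median of normalised cluster binding-curve fits.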

[2] = tested on: MS2 coat protein; assay: apparent KD of MS2 coat protein, switch OFF state (with FMN for OFF switches, without FMN for ON switches); designed switch direction (-1 OFF switch, 1 ON switch): -1; higher = weaker reporter binding; conditions: FMN input: 0 or 200 uM; Eterna round: R93 (includes R88 designs)
Method in brief: as §1

AGCUAGUCAGGAUAUACAAAAAUGAUAGAAGACGUAAGGGAACAUGAGGAUCACCCAUGUAGAAGGGACUAGCA [Diamond 44]
apparent KD of MS2 coat protein [1]: 41 nM | apparent KD of MS2 coat protein [2]: 129 nM

AGCUAGUCAGGAUAUACAAAAAUGCUAGAAGACGUAAGGGAACAUGAGGAUCACCCAUGUAGAAGGGACUAGCA [Diamond 45]
apparent KD of MS2 coat protein [1]: 37.2 nM | apparent KD of MS2 coat protein [2]: 58.3 nM

AGCUAGUCAGGAUAUACAUGAAAAAAAAAAAAAAAAAAAAAACAUGAGGAUCACCCAUGUAGAAGGGACUAGCA [Starry Esclusion 2 (jandersonlee round 1 mod)]
apparent KD of MS2 coat protein [1]: 95.6 nM | apparent KD of MS2 coat protein [2]: 98.9 nM

AGCUAGUCAGGAUAUACGAAAAUGUCAGAAGCUGAGAAGGGACAUGAGGAUCACCCAUGUAGAAGGGACUAGCA [Diamond 37]
apparent KD of MS2 coat protein [1]: 70.2 nM | apparent KD of MS2 coat protein [2]: 316 nM

AGCUAGUCAGGAUAUACGAACAUGUAAAAAGAAGUGAAGGGACAUGAGGAUCACCCAUGUAGAAGGGACUAGAA [74%, Web mod - With 3 less C's]
apparent KD of MS2 coat protein [1]: 55.5 nM | apparent KD of MS2 coat protein [2]: 109 nM

AGCUAGUCAGGAUAUACGAACAUGUCAAAAGACGUGAAGGGACAUGAGGAUCACCCAUGUAGAAGGGACUAGCG [salish99-ex2-14]
apparent KD of MS2 coat protein [1]: 36 nM | apparent KD of MS2 coat protein [2]: 103 nM

AGCUAGUCAGGAUAUACGAACAUGUCAUAAGACGUGAAGGGACAUGAGGAUCACCCAUGUAGAAGGGACUAGCA [74%, Web mod - With 1 more U's]
apparent KD of MS2 coat protein [1]: 36.7 nM | apparent KD of MS2 coat protein [2]: 139 nM

AGCUAGUGAGGAUAUACGAACAUGUCAACAGACUGUAAGGGACAUGAGGAUCACCCAUGUAGAAGGCACUAGCA [Diamond 56]
apparent KD of MS2 coat protein [1]: 59.4 nM | apparent KD of MS2 coat protein [2]: 174 nM

AGCUGGAGAGGAUAUACGUAGGAAAAAAAAGUCUGAUCCCUACAUGAGGAUCACCCAUGUAGAAGGCUCUGGCA [Ex2 Design 161: Sub-opt 25]
apparent KD of MS2 coat protein [1]: 63.5 nM | apparent KD of MS2 coat protein [2]: 63.6 nM

AGGAAACAUGAGGAUCACCCAUGUAAGGAUAUGUGAAAGAAAAGAAAAGAAAGAAGAAACAGAAGGUACAAGAA [Qa'a]
apparent KD of MS2 coat protein [1]: 46.3 nM | apparent KD of MS2 coat protein [2]: 42.4 nM

AGGAAACAUGAGGAUCACCCAUGUAAGGAUAUGUGAAAGAAAAGAAAAGAAAGAAGAAGCAGAAGGUACAAGAA [Anedjib]
apparent KD of MS2 coat protein [1]: 34.9 nM | apparent KD of MS2 coat protein [2]: 47.2 nM

AGGAAACAUGAGGAUCACCCAUGUCAGGAUAUAUGAAAGAAAAGAAAAGAAAGAAGAAGUAGAAGGGACAAGAA [Ka]
apparent KD of MS2 coat protein [1]: 29.8 nM | apparent KD of MS2 coat protein [2]: 29.9 nM

AGGAAACAUGAGGAUCACCCAUGUGAGGAUAUGAACGAAAAUAAAUAAAAAUAAAAGUUCAGAAGGCAUAAAAA [66%, Wbt, 4]
apparent KD of MS2 coat protein [1]: 30 nM | apparent KD of MS2 coat protein [2]: 35.6 nM

AGGAAACAUGAGGAUCACCCAUGUGAGGAUAUGAACGAAAUAAAAUAAAAAUAAAAGUUCAGAAGGCAUAAAAA [Mat - Exclusion 1 - Eli mod - D7]
apparent KD of MS2 coat protein [1]: 26.8 nM | apparent KD of MS2 coat protein [2]: 24.4 nM

AGGAAACAUGAGGAUCACCCAUGUUAGGAUAUGAACGAAAAUAAAUAAAAAUAAAAGUUCAGAAGGAACAAAAA [66%, Wbt, 18]
apparent KD of MS2 coat protein [1]: 27 nM | apparent KD of MS2 coat protein [2]: 41.9 nM

AGGCAGACAGGAUAUACUUGGGCAGCCAAUAUAAUAAUAUAACAUGAGGAUCACCCAUGUAGAAGGGUCAGAAA [JR_Exc002_Sub209]
apparent KD of MS2 coat protein [1]: 62.6 nM | apparent KD of MS2 coat protein [2]: 86.7 nM

AGGCUCCUAGGAUAUACUGGCUGGCCUCCACAAAAGAAAAUACAUGAGGAUCACCCAUGUAGAAGGAGGAGUGG [Geesar]
apparent KD of MS2 coat protein [1]: 19.3 nM | apparent KD of MS2 coat protein [2]: 22.7 nM

AGGGAGUGAGGAUAUACGAAAAAAAAACAACGAAAAAAAGAGUAGAAGGCACAUGAGGAUCACCCAUGUAAGAA [milkweed 14]
apparent KD of MS2 coat protein [1]: 44.5 nM | apparent KD of MS2 coat protein [2]: 25.3 nM

AGGGAGUGAGGAUAUCCGAAAAAAAAACAACGAAAAAAAGAGGAGAAGGCACAUGAGGAUCACCCAUGUAAGAA [milkweed 15]
apparent KD of MS2 coat protein [1]: 40.7 nM | apparent KD of MS2 coat protein [2]: 28.6 nM

AGGUACCUAGGAUAUACAUGAGGAUCACCCAUGUCACAAAUAAAACACAGGUAUCCUGGUAGAAGGAGGAACAA [Veinle]
apparent KD of MS2 coat protein [1]: 24.1 nM | apparent KD of MS2 coat protein [2]: 36.5 nM

AGUCAUACAGGAUAUACAUGAGGAUCACCCAUGUAAAUCCUAAAAAGGUGAUCCUCAUGUAGAAGGGUAUGACA [EX3 219: Super Stable 19]
apparent KD of MS2 coat protein [1]: 21.8 nM | apparent KD of MS2 coat protein [2]: 17.7 nM

AGUCAUACAGGAUAUACAUGAGGAUCACCCAUGUAUAUCCAAAAAAAAAAAAAAACAUGUAGAAGGGUAUGACA [EX3 207: Super Stable 7]
apparent KD of MS2 coat protein [1]: 10.8 nM | apparent KD of MS2 coat protein [2]: 7.41 nM

AGUCAUACAGGAUAUACAUGAGGAUCACCCAUGUAUAUCCAAAAAAAGUGAUCCUCAUGUAGAAGGGUAUGACA [EX3 203: Super Stable 3]
apparent KD of MS2 coat protein [1]: 12 nM | apparent KD of MS2 coat protein [2]: 8.92 nM

AGUCAUACAGGAUAUACAUGAGGAUCACCCAUGUUUAUCCUAAAAUAAAAAAAAACAUGUAGAAGGGUAUGACA [EX3 215: Super Stable 15]
apparent KD of MS2 coat protein [1]: 15.1 nM | apparent KD of MS2 coat protein [2]: 14.1 nM

AGUCGGCGAGGAUAUACAUGAGGAUCACCCAUGUGAGAGAAAAAAGUGAGCAAGAAAAGUAGAAGGCGCUGACA [JL Lego Mod 2]
apparent KD of MS2 coat protein [1]: 54.2 nM | apparent KD of MS2 coat protein [2]: 154 nM

AGUCGGCGAGGAUAUACAUGAGGAUCACCCAUGUGAGAGAUAAAAGUGAGUUAGACAAGUAGAAGGCGCUGACA [JL Lego Mod 9]
apparent KD of MS2 coat protein [1]: 44.3 nM | apparent KD of MS2 coat protein [2]: 480 nM

AGUCUGAGAGGAUAUACAUGGAAAAAAAAAGUAAGAUCCCUACAUGAGGAUCACCCAUGUAGAAGGCUCUGACA [Ex2 Design 144: Sub-opt 8]
apparent KD of MS2 coat protein [1]: 41.7 nM | apparent KD of MS2 coat protein [2]: 22.7 nM

AGUUGGCGAGGAUAUACAUGAGGAUCACCCAUGUAAAAUAAAUAAAAAAUAGGGAAAAGUAGAAGGCGCUGACA [73%, Moding Norbert Elias, 13]
apparent KD of MS2 coat protein [1]: 48.4 nM | apparent KD of MS2 coat protein [2]: 96.3 nM

AGUUGGCGAGGAUAUACAUGAGGAUCACCCAUGUGAGAGAAAAAAAAGAGAAAAAAAAGUAGAAGGCGCUGACA [Mat - Exclusion 3 - Lego mod - D42]
apparent KD of MS2 coat protein [1]: 42.6 nM | apparent KD of MS2 coat protein [2]: 130 nM

AGUUGGCGAGGAUAUACAUGAGGAUCACCCAUGUGAGAGAAAAAAGUGAGAAAGAAAAGUAGAAGGCGCUGACC [salish99-ex3-07]
apparent KD of MS2 coat protein [1]: 58.3 nM | apparent KD of MS2 coat protein [2]: 103 nM

AGUUGGCGAGGAUAUACAUGAGGAUCACCCAUGUGAGAGAAAAAAGUGGAAAAGAAAAGUAGAAGGCGCUGACA [Mat - Exclusion 3 - Lego mod - D90]
apparent KD of MS2 coat protein [1]: 39.4 nM | apparent KD of MS2 coat protein [2]: 119 nM

AUAAAACAUGAGGAUCACCCAUGUCAGGAUAUACGAUAUUAAAUUUAAUAUAUUUAUAGUAGAAGGGACAAAUA [High Five]
apparent KD of MS2 coat protein [1]: 31.6 nM | apparent KD of MS2 coat protein [2]: 37.1 nM

AUAAAACAUGAGGAUCACCCAUGUGAGGAUAUCCAAAAAGAAAGAAAAAAAAAAAAAAGGAGAAGGCACAAUAA [Amethyst 46]
apparent KD of MS2 coat protein [1]: 67.6 nM | apparent KD of MS2 coat protein [2]: 46.7 nM

AUAAAACAUGAGGAUCACCCAUGUGAGGAUAUGCGAAACAAACAAACAAACAAACAAAGCAGAAGGCACAAUAA [Amethyst 9]
apparent KD of MS2 coat protein [1]: 22.6 nM | apparent KD of MS2 coat protein [2]: 24.6 nM

AUAAAACAUGAGGAUCACCCAUGUGAGGAUAUGCGAAAGAAAGAAAGAAAGAAAGAAAGCAGAAGGCACAAUAA [Amethyst 42]
apparent KD of MS2 coat protein [1]: 30.1 nM | apparent KD of MS2 coat protein [2]: 32.6 nM

AUAAACGGAGGAUAUACAUGAGGAUCACCCAUGUAAAUAAAUAAAAGUUCCUCAAUAAGUAGAAGGUCGAAUAA [JR_Exc003_Sub011]
apparent KD of MS2 coat protein [1]: 12.8 nM | apparent KD of MS2 coat protein [2]: 13 nM

AUAAAGCGAGGAUAUACAUGAGGAUCACCCAUGUAAAUAAAUAGGAGAGCCACAAUAAGUAGAAGGUGUAAUAA [JR_Exc003_Sub009]
apparent KD of MS2 coat protein [1]: 62.6 nM | apparent KD of MS2 coat protein [2]: 73.3 nM

AUAAAGUCAGGAUAUGUAAGAAUAACGAAAGUUAUAAAGAAACAGAAGGGACAUGAGGAUCACCCAUGUAAAAU [Ex 4 #3]
apparent KD of MS2 coat protein [1]: 43.1 nM | apparent KD of MS2 coat protein [2]: 31 nM

AUAAAGUGAGGAUAUACAUGAGGAUCACCCAUGUGAAAGUCUAAAAAAAUGACAAAAAGUAGAAGGCACAAAUA [Mai Tai2 ala mod Fisker]
apparent KD of MS2 coat protein [1]: 18.8 nM | apparent KD of MS2 coat protein [2]: 23.5 nM

AUAAGUCGAGGAUAUACGAAAAGCUAGCGAAAGCUAGCGGGACAUGAGGAUCACCCAUGUAGAAGGCGACAAUA [Tetraloop hairpin BlockHead... 61% 5]
apparent KD of MS2 coat protein [1]: 28.4 nM | apparent KD of MS2 coat protein [2]: 57 nM
